Test results reported in patent US20260176332A1 (BEIJING MDTK BIOTECHNOLOGY, published 2026).

Legend:
[1] = target: T1, GSDMD-CT expressed protein (human, UniProt P57764 276-484); assay: competitive inhibition ELISA, coated GSDMD-CT vs soluble GSDMD-CT (FIG. 5)
T1 construct: Recombinantly expressed; also called recombinant GSDMD-CT; C-terminus of GSDMD
T1 sequence: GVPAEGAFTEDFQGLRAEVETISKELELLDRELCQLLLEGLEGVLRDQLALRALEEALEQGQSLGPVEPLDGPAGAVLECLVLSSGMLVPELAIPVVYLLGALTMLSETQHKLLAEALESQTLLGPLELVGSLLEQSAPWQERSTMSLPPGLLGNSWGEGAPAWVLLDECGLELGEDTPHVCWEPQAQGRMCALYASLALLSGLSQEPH
Method: The protein coating amount and antibody dilution concentration were preliminarily determined by checkerboard titration, and the experimental procedure was as follows:
(1) Coating antigen: The GSDMD-CT expressed protein was diluted with coating solution and coated at 2 ug/ml, 1 ug/ml, 0.5 ug/ml, 0.25 ug/ml, 100 ul/well overnight at 4° C.; washed three times with the washing solution, 350 ul/well, and pat dried. (2) Blocking: 200 ul/well blocking solution, incubated at 37° C. for 2 h; washed three times with the washing solution, 350 ul/well, and pat dried. (3) 1 ug/mL of #25, #44, and #50 antibodies was diluted 1,000 times with antibody diluent, then diluted with a 2-fold gradient, 100 μl/well, and blank was 100 μl of antibody diluent, and the antibodies were incubated at 37° C. for 1 h; washed three times with the washing solution, 350 ul/well, and pat dried. […] (6) Termination, reading: 100 ul/well stop solution was added, reading at OD 450 nm. (7) The dose curve of coating protein relative to antibody was determined. […] (10) 50 ul of sample solutions of different concentrations were added to 50 ul of diluted antibody, and then 100 ul of the mixture was added to the microplate reader plate and incubated for 1 h at 37° C.

[2] = target: T2, Elongated Peptide (SEQ ID NO:5: TDGVPAEGAFTEDFQGLR) (human); assay: ELISA, peptide coated at 2 ug/ml, hybridoma supernatant diluted 100 times
T2 construct: Synthetic peptide coated on the ELISA plate
T2 peptide: TDGVPAEGAFTEDFQGLR
Method: (§1) (1) Coating antigen: Specific Peptide and Elongated Peptide were respectively diluted with the coating solution, and coated at 2 μg/ml, 100 ul/well at 4° C. overnight; washed three times with the washing solution, 350 ul/well, and pat dried. (2) Blocking: 200 ul/well blocking solution, incubated at 37° C. for 2 h; washed three times with the washing solution, 350 ul/well, and pat dried. (3) The antibody (such as #25, #44, or #50) supernatant medium in Table 1 was diluted by 100 times with antibody diluent, 100 ul/well, and the blank was 100 ul antibody dilution, and they were incubated at 37° C. for 1 h; washed three times with the washing solution, 350 ul/well, and pat dried. (4) The secondary antibody was diluted with antibody diluent at a ratio of 1:10000, 100 ul/well, incubated at 37° C. for 1 h; washed three times with the washing solution, 350 ul/well, and pat dried. (5) Color development: 100 ul/well developer was added, incubating 10 min at room temperature. (6) Termination, reading: 100 ul/well stop solution was added, reading at OD 450 nm.

[3] = target: T3, Specific Peptide (SEQ ID NO:4: GVPAEGAFTEDFQGLR) (human); assay: as above
T3 construct: Synthetic peptide coated on the ELISA plate; also called polypeptide number #1
T3 peptide: GVPAEGAFTEDFQGLR
Method: as §1

B1: MD2106 #50 (antibody, IgG1, V domains shown)
VH: QVQLQQPGTELVKPGASVKLSCKASGYTFTNYWIHWVKQRPGQGLEWIGNTKPSNGDIHYNEKFRSKATLTVDKSSSTAYIQLSSLTSEDSAVYFCAVGYYWGQGTTLTVSS
VL: DIVMTQSPSSLTVTAGEKVTMSCKSSQSLLNSGNQKNYLTWYQQKPGQPPKMLIYWAYNRDSGVPDRFTGSGSGADFTLTISSVQAEDLAVYYCQNDYSYPLTFGAGTKLEL
notes: Mouse hybridoma monoclonal antibody; heavy chain type IgG1, light chain type kappa; Hybridoma supernatant diluted 100 times in the peptide ELISA; 1 ug/mL antibody, further diluted, in the GSDMD-CT ELISA; also called monoclonal antibody #50; MD2106-#5 #50
B1: binds [1]; no binding [2]; binds [3].
